Measurements from paper PMC12214560, “NAD-dependent dehydrogenases enable efficient growth of Paracoccus denitrificans on the PET monomer ethylene glycol” (Nature Communications, 2025).
Positions count from the first letter of the chain named. Names may count otherwise.

B1: EtgB, NAD-dependent alcohol dehydrogenase (Pden_2367) (enzyme, Paracoccus denitrificans DSM 413)
chain: MAKTMKAAVVREFGKPLTIDEVPVPEPGPGMIQVRIQASGVCHTDLHAAEGDWPVKPNPPFIPGHEGVGFVSAVGAGVKHVKEGDRVGVPWLYTACGHCRHCLGGWETLCESQLNTGYSVNGGFADYVVADPNYVGHLPKNVDFLDIAPVLCAGVTVYKGLKVTDTKPGDWVVISGIGGLGHMAVQYAKAMGMNVAAVDIDDEKLALARKLGATVTVNAATEPDPAAAIRKQTDGGAQGVLVTAVGRKAFEQAIGMVARGGTVALNGLPPGDFPLDIFGMVLNGITVRGSIVGTRLDLQESLDFAGDGKVKATVHKAKLEDINNIFGQMHKGQIEGRMVLDMAG
notes: The enzyme holds zinc ions; also called EtgB WT; alcohol dehydrogenase EtgB; source: E. coli BL21 AI, purified (Ni-NTA, desalting, size exclusion on Superdex 200 Increase)
B2: EtgB (Paracoccus denitrificans PD1222; T44S) (protein)
chain: B1 chain with T44S
notes: pET16b, His-tagged, E. coli BL21 AI, Ni-NTA purified; homotetramer; zinc-dependent medium-chain alcohol dehydrogenase
B3: EtgB (Paracoccus denitrificans PD1222; H47N) (protein)
chain: B1 chain with H47N
notes: as for B2
B4: EtgB (Paracoccus denitrificans PD1222; H47N/T44S) (protein)
chain: B1 chain with T44S, H47N
notes: as for B2
B5: EtgA, NAD-dependent aldehyde dehydrogenase (Pden_2366) (enzyme, Paracoccus denitrificans DSM 413)
chain: MPNDQTHPFRGVNALPFEERYDNFIGGEWVAPVSGRYFTNTTPITGAEIGQIARSEAGDIELALDAAHAAKEKWGATSPAERANIMLKIADRMERNLELLATAETWDNGKPIRETMAADLPLAIDHFRYFAGVLRAQEGSISQIDDDTVAYHFHEPLGVVGQIIPWNFPLLMACWKLAPAIAAGNCVVLKPAEQTPAGIMVWANLIGDLLPPGVLNIVNGFGLEAGKPLASSNRIAKIAFTGETTTGRLIMQYASENLIPVTLELGGKSPNIFFADVAREDDDFFDKALEGFTMFALNQGEVCTCPSRVLIQESIYDKFMERAVQRVQAIKQGDPRESDTMIGAQASSEQKEKILSYLDIGKKEGAEVLTGGKAADLGGELSGGYYIEPTIFRGNNKMRIFQEEIFGPVVSVTTFKDQAEALEIANDTLYGLGAGVWSRDANTCYRMGRGIKAGRVWTNCYHAYPAHAAFGGYKQSGIGRETHKMMLDHYQQTKNMLVSYSPKKLGFF
notes: EtgA, NAD-dependent aldehyde dehydrogenase of Paracoccus denitrificans DSM 413, gene Pden_2366 amplified from genomic DNA and cloned into pET16b; also called aldehyde dehydrogenase EtgA; source: E. coli BL21 AI, purified (Ni-NTA, desalting, size exclusion on Superdex 200 Increase)

How the values were obtained:
[1] = substrate: O=CCO; test: purified protein; type: biochemical, Paracoccus denitrificans; conditions: 30 °C
[2] = substrate: CC(O)CO; test: purified protein; type: biochemical, Paracoccus denitrificans; conditions: 100 mM glycine-NaOH pH 10, 2.4 mM NAD+, 30 °C, oxidation
[3] = substrate: CCCO; test: purified protein; type: biochemical, Paracoccus denitrificans; conditions: 100 mM glycine-NaOH pH 10, 2.4 mM NAD+, 30 °C, oxidation
[4] = substrate: CCCCO; test: purified protein; type: biochemical, Paracoccus denitrificans; conditions: 100 mM glycine-NaOH pH 10, 2.4 mM NAD+, 30 °C, oxidation
[5] = substrate: CC=O; test: purified protein; type: biochemical, Paracoccus denitrificans; conditions: 30 °C
[6] = substrate: OCCO; test: purified protein; type: biochemical, Paracoccus denitrificans; conditions: 100 mM glycine-NaOH pH 10, 2.4 mM NAD+, 30 °C, oxidation
[7] = target: the molecule itself; test: cryo-EM structure; protein purified by Ni-NTA and size exclusion in buffer C (100 mM sodium chloride, 25 mM potassium phosphate pH 8.0, 1 mM DTT); Titan Krios 300 kV, K3 detector; processed in RELION-5.0; homo-oligomer seen in the map
[8] = substrate: CCO; test: purified protein; conditions: 100 mM glycine-NaOH pH 10, 2.4 mM NAD+, 30 °C, oxidation
[9] = 100 mM potassium phosphate pH 7.5, 0.2 mM NADH, reduction
[10] = 100 mM potassium phosphate pH 7.5, 2.4 mM NAD+, oxidation

Protein	Km [2] [µM]	kcat [2] [s⁻¹]	kcat/Km [2] [M⁻¹ s⁻¹]	Km [6] [µM]	kcat [6] [s⁻¹]	kcat/Km [6] [M⁻¹ s⁻¹]	stoichiometry N [7]	Km [8] [µM]	kcat [8] [s⁻¹]	kcat/Km [8] [M⁻¹ s⁻¹]	further results
B1	59460 ± 3310	3.5 ± 0.1	59.6 ± 1	11050 ± 1320	7.2 ± 0.2	651 ± 22	4	120 ± 10	23.5	201000	Km [1, 9]: 1040 ± 60 µM; kcat [1, 9]: 50.1 ± 1.2 s⁻¹; kcat/Km [1, 9]: 48300 ± 3200 M⁻¹ s⁻¹; Km [3]: 110 ± 10 µM; kcat [3]: 18.7 ± 0.5 s⁻¹; kcat/Km [3]: 176000 ± 14000 M⁻¹ s⁻¹; Km [4]: 40 ± 10 µM; kcat [4]: 8.4 ± 0.1 s⁻¹; kcat/Km [4]: 213000 ± 14000 M⁻¹ s⁻¹; Km [5, 9]: 40 ± 10 µM; kcat [5, 9]: 158 ± 2.9 s⁻¹; kcat/Km [5, 9]: 3.84e+06 ± 240000 M⁻¹ s⁻¹
B2	27680 ± 1730	1.6 ± 0.1	57.8 ± 0.7	10170 ± 360	0.7 ± 0.1	70.2 ± 2.6		100 ± 20	3.2	33200	
B3	67180 ± 8900	13.2 ± 0.6	197 ± 8	53690 ± 4040	14.7 ± 0.3	274 ± 6		230 ± 10	25.2	108000	
B4	19750 ± 2980	6.5 ± 0.2	330 ± 11	11510 ± 1470	2.9 ± 0.1	251 ± 5		100 ± 20	10.7	105000	
B5							4				Km [1, 10]: 120 ± 10 µM; kcat [1, 10]: 6.3 ± 0.2 s⁻¹; kcat/Km [1, 10]: 51300 ± 4900 M⁻¹ s⁻¹; Km [5, 10]: 9 ± 1 µM; kcat [5, 10]: 1.3 ± 0.1 s⁻¹; kcat/Km [5, 10]: 135000 ± 21000 M⁻¹ s⁻¹
